Tests used:
[1] = target: human c-Met on tumor cells (MKN45, NCI-H358, NCI-H69, LS1034, NCI-H716, MDA-MB-468) (human) (UniProt P08581); assay: flow cytometry on NCI-H69 cells
[2] = target: human c-Met on tumor cells (MKN45, NCI-H358, NCI-H69, LS1034, NCI-H716, MDA-MB-468) (human) (UniProt P08581); assay: flow cytometry on LS1034 cells
[3] = target: human c-Met on tumor cells (MKN45, NCI-H358, NCI-H69, LS1034, NCI-H716, MDA-MB-468) (human) (UniProt P08581); assay: flow cytometry on NCI-H358 cells
[4] = target: h.cMet-ECD-His (Human HGF R/c-MET Protein, His Tag, Acrobiosystems MET-H5227) (human) (UniProt P08581); assay: ELISA, h.cMet-ECD-His captured by anti-His-Rabbit Fc
h.cMet-ECD-His (Human HGF R/c-MET Protein, His Tag, Acrobiosystems MET-H5227) (human), sequence (P08581 25-932): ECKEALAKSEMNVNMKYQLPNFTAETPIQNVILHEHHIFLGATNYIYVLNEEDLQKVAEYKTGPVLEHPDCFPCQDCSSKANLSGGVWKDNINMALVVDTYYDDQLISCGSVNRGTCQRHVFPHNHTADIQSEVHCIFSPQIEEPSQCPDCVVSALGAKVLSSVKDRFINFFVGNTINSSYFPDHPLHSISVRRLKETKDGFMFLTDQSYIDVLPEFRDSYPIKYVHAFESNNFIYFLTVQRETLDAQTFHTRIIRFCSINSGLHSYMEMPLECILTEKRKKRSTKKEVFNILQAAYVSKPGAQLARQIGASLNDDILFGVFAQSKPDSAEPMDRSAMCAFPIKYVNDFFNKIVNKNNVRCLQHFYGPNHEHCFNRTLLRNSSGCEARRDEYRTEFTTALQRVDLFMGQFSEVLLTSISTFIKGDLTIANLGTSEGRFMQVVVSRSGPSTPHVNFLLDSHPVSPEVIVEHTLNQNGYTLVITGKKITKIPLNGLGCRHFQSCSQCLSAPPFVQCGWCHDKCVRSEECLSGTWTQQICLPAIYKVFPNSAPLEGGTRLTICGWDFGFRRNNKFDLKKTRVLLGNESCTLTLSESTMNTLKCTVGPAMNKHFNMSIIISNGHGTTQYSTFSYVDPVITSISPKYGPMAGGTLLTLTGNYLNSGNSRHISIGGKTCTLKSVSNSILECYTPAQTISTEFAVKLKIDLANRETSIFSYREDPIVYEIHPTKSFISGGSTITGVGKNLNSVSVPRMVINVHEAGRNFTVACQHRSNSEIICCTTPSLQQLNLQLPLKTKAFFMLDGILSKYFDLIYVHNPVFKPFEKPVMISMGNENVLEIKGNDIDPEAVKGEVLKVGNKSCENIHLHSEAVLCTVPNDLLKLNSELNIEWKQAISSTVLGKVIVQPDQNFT

[5] = target: human c-Met on tumor cells (MKN45, NCI-H358, NCI-H69, LS1034, NCI-H716, MDA-MB-468) (human) (UniProt P08581); assay: flow cytometry on NCI-H716 cells

human c-Met on tumor cells (MKN45, NCI-H358, NCI-H69, LS1034, NCI-H716, MDA-MB-468) (human), sequence (P08581 25-1390): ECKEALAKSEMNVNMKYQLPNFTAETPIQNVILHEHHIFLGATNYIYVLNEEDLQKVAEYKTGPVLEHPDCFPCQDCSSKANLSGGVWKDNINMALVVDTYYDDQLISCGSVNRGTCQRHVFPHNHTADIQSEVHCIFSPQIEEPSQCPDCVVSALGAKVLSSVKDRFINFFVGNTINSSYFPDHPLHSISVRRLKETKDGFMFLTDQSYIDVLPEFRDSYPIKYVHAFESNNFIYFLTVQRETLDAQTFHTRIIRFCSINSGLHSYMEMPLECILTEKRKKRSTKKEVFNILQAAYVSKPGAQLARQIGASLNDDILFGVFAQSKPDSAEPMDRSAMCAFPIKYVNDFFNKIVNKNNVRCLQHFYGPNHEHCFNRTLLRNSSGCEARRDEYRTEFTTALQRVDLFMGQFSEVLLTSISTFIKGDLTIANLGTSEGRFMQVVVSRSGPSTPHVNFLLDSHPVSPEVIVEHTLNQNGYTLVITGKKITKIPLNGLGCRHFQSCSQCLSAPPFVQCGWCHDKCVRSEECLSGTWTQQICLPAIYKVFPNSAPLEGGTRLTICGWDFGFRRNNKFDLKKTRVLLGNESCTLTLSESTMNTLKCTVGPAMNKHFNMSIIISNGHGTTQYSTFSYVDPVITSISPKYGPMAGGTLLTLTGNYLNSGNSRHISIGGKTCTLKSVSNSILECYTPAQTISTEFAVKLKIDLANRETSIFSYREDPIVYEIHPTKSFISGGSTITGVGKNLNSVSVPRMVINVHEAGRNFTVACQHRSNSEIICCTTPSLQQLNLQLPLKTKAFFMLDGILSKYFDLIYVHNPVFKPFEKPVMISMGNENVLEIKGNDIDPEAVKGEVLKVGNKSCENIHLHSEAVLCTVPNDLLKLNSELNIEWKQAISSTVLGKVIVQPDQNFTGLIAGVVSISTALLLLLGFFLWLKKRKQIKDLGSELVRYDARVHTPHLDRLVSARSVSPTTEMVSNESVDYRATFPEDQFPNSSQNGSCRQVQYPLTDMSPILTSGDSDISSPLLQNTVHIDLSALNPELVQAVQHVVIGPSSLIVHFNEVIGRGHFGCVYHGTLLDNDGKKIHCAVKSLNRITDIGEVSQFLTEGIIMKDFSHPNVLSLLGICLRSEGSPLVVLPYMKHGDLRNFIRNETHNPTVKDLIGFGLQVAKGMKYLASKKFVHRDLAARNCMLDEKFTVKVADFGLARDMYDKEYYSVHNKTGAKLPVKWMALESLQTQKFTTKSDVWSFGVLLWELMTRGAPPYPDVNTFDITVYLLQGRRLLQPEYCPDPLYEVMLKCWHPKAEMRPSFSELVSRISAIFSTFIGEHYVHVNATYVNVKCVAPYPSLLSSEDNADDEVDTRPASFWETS

EC50 [1]	Maximum signal value [1]	EC50 [2]	Maximum signal value [2]	EC50 [3]	Maximum signal value [3]	EC50 [4]	EC50 [5]	Maximum signal value [5]	Binder
0.212 nM	8210	0.852 nM	8960	0.917 nM	32400	2.43 mg/L			ABT700-vc-MMAE (DAR9.7) (antibody, INN chains, looked up, V domains shown, vc-MMAE, DAR 9.7) VH: QVQLVQSGAEVKKPGASVKVSCKASGYIFTAYTMHWVRQAPGQGLEWMGWIKPNNGLANYAQKFQGRVTMTRDTSISTAYMELSRLRSDDTAVYYCARSEITTEFDYWGQGTLVTVSS VL: DIVMTQSPDSLAVSLGERATINCKSSESVDSYANSFLHWYQQKPGQPPKLLIYRASTRESGVPDRFSGSGSGTDFTLTISSLQAEDVAVYYCQQSKEDPLTFGGGTKVEIK
							11.6 nM	3740	ABT700-Vc-MMAE (DAR4) (antibody, INN chains, looked up, V domains shown, vc-MMAE, DAR 4) VH: QVQLVQSGAEVKKPGASVKVSCKASGYIFTAYTMHWVRQAPGQGLEWMGWIKPNNGLANYAQKFQGRVTMTRDTSISTAYMELSRLRSDDTAVYYCARSEITTEFDYWGQGTLVTVSS VL: DIVMTQSPDSLAVSLGERATINCKSSESVDSYANSFLHWYQQKPGQPPKLLIYRASTRESGVPDRFSGSGSGTDFTLTISSLQAEDVAVYYCQQSKEDPLTFGGGTKVEIK
